We go through 1 molecule from patent publication US20080267950A1 (BOARD OF TRUSTEES OF THE UNIVERSITY OF ARKANSAS, published 2008).

Assay [1] deals with T1, LRP6 in C2C12 cell lysate (mouse, UniProt O88572 20-1613).
T1 construct: also called LDL receptor-related protein 6
Kind of assay: co-immunoprecipitation: BMPR immunoprecipitated from C2C12 lysate, blotted with anti-LRP6.

Assay [2] concerns the target T2, LRP5 in C2C12 cell lysate (mouse, UniProt Q91VN0 31-1614).
T2 construct: also called LDL receptor-related protein 5
The assay is described as follows: co-immunoprecipitation: BMPR immunoprecipitated from C2C12 lysate, blotted with anti-LRP5.

T2 sequence (Q91VN0 31-1614 limits assumed): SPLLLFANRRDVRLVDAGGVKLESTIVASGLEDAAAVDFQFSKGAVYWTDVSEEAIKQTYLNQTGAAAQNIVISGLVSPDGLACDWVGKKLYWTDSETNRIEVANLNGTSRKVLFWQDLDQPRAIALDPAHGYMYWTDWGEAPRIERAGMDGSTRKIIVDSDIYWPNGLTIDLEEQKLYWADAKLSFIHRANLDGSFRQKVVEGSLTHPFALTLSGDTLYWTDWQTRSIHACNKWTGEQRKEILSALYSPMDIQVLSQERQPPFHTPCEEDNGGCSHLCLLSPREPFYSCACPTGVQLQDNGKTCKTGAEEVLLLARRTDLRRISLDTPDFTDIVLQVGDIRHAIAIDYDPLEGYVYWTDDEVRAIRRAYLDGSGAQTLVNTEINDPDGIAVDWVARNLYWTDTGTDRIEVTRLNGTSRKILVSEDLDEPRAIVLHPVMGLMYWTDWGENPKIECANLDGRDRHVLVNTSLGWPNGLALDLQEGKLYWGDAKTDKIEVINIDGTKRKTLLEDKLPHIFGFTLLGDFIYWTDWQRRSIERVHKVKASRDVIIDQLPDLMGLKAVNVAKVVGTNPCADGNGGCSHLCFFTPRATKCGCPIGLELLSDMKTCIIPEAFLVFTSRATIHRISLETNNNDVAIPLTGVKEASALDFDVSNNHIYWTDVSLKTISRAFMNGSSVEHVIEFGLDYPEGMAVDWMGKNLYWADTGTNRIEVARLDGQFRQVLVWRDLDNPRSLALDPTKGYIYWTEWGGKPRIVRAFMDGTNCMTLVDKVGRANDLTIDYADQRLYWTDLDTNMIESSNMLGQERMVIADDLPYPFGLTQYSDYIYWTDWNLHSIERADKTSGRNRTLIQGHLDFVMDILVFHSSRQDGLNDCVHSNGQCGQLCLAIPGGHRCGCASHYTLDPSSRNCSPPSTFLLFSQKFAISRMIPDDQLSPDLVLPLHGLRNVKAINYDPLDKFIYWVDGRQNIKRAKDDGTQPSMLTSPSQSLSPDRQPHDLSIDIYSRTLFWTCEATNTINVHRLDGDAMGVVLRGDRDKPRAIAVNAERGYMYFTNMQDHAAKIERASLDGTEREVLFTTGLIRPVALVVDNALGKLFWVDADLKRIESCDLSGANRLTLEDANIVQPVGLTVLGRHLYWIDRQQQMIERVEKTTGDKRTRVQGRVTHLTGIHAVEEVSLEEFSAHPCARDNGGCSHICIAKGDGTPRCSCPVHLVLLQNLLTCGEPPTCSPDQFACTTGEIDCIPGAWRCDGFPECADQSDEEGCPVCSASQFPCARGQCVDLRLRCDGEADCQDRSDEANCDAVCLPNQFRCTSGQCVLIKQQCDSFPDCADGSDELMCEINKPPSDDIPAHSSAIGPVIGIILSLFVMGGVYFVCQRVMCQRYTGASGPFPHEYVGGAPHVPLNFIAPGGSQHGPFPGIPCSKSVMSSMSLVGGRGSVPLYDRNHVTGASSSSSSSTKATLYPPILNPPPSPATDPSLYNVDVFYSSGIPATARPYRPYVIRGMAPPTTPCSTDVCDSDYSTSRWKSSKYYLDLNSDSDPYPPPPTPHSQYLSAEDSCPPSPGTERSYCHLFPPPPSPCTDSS
T1 sequence (O88572 20-1613 limits assumed): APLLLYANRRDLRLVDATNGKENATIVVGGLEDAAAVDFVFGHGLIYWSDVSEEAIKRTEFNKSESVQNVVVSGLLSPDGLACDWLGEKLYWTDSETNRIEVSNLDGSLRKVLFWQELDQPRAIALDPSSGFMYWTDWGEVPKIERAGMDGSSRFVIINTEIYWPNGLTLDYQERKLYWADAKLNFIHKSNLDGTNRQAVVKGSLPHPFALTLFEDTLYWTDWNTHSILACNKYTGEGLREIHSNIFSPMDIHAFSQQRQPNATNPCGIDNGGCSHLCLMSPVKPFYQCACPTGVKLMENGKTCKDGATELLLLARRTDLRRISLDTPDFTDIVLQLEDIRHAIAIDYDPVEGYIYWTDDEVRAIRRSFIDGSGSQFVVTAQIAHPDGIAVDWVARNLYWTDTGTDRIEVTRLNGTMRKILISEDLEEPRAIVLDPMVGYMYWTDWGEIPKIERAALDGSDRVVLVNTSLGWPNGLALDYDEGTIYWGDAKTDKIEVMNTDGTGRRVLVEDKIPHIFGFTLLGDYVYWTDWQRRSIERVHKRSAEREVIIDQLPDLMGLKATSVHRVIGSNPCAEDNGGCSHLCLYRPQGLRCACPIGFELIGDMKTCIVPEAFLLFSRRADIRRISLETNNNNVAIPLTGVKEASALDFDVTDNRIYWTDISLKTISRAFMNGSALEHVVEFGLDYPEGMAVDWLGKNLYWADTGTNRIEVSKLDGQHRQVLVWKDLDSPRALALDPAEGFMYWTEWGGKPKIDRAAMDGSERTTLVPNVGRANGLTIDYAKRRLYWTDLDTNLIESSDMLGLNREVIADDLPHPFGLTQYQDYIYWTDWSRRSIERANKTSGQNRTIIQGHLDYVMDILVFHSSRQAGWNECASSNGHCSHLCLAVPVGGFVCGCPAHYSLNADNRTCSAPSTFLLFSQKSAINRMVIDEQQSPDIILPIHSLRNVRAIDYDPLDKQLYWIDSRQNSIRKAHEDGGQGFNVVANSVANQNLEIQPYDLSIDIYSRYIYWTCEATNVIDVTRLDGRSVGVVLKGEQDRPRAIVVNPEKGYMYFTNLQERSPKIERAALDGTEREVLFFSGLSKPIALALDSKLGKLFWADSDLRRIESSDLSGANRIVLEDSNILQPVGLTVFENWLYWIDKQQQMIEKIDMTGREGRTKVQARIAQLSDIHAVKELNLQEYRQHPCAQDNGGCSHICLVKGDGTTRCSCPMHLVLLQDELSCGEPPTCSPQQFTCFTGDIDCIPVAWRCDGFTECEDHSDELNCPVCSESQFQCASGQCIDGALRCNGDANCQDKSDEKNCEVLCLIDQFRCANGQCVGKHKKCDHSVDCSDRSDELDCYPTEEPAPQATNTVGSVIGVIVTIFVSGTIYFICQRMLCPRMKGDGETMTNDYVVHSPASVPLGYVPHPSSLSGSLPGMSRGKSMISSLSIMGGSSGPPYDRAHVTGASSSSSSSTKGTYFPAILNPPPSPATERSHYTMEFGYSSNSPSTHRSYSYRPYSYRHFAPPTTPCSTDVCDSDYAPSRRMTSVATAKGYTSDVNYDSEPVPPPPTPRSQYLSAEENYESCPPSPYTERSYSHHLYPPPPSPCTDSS

B1: BMPR-II in C2C12 cell lysate (receptor, mouse, UniProt O35607 27-1038, looked up)
chain: SQNQERLCAFKDPYQQDLGIGESRISHENGTILCSKGSTCYGLWEKSKGDINLVKQGCWSHIGDPQECHYEECVVTTTPPSIQNGTYRFCCCSTDLCNVNFTENFPPPDTTPLSPPHSFNRDETIIIALASVSVLAVLIVALCFGYRMLTGDRKQGLHSMNMMEAAAAEPSLDLDNLKLLELIGRGRYGAVYKGSLDERPVAVKVFSFANRQNFINEKNIYRVPLMEHDNIARFIVGDERLTADGRMEYLLVMEYYPNGSLCKYLSLHTSDWVSSCRLAHSVTRGLAYLHTELPRGDHYKPAISHRDLNSRNVLVKNDGACVISDFGLSMRLTGNRLVRPGEEDNAAISEVGTIRYMAPEVLEGAVNLRDCESALKQVDMYALGLIYWEVFMRCTDLFPGESVPDYQMAFQTEVGNHPTFEDMQVLVSREKQRPKFPEAWKENSLAVRSLKETIEDCWDQDAEARLTAQCAEERMAELMMIWERNKSVSPTVNPMSTAMQNERNLSHNRRVPKIGPYPDYSSSSYIEDSIHHTDSIVKNISSEHSMSSTPLTIGEKNRNSINYERQQAQARIPSPETSVTSLSTNTTTTNTTGLTPSTGMTTISEMPYPDETHLHATNVAQSIGPTPVCLQLTEEDLETNKLDPKEVDKNLKESSDENLMEHSLKQFSGPDPLSSTSSSLLYPLIKLAVEVTGQQDFTQAANGQACLIPDVPPAQIYPLPKQQNLPKRPTSLPLNTKNSTKEPRLKFGNKHKSNLKQVETGVAKMNTINAAEPHVVTVTMNGVAGRSHNVNSHAATTQYANGAVPAGQAANIVAHRSQEMLQNQFIGEDTRLNINSSPDEHEPLLRREQQAGHDEGVLDRLVDRRERPLEGGRTNSNNNNSNPCSEQDILTQGVTSTAADPGPSKPRRAQRPNSLDLSATNILDGSSIQIGESTQDGKSGSGEKIKRRVKTPYSLKRWRPSTWVISTEPLDCEVNNNGSDRAVHSKSSTAVYLAEGGTATTTVSKDIGMNCL
notes: also called BMP-2 receptor
Turning to B1, the binding result in assay [1] and in assay [2] was “no binding” throughout.
